Measurements: article PMC9368766 (2022)

Key:
T-Fc [1] = experiment: BLI; deglycosylated FGFR1-Fc
KCK-FGF1.E [2] = molecular target: KCK-FGF1.E (UniProt P05230); experiment: BLI; deglycosylated FGFR1-Fc
T-Fc [3] = experiment: BLI
KCK-FGF1.E [4] = molecular target: KCK-FGF1.E (UniProt P05230); experiment: BLI

B1: de-glycosylated FGFR1-Fc (Fc fusion)
chain: RPSPTLPEQAQPWGAPVEVESFLVHPGDLLQLRCRLRDDVQSINWLRDGVQLAESNRTRITGEEVEVQDSVPADSGLYACVTSSPSGSDTTYFSVNVSDALPSSEDDDDDDDSSSEEKETDNTKPNRMPVAPYWTSPEKMEKKLHAVPAAKTVKFKCPSSGTPNPTLRWLKNGKEFKPDHRIGGYKVRYATWSIIMDSVVPSDKGNYTCIVENEYGSINHTYQLDVVERSPHRPILQAGLPANKTVALGSNVEFMCKVYSDPQPHIQWLKHIEVNGSKIGPDNLPYVQILKTAGVNTTDKEMEVLHLRNVSFEDAGEYTCLAGNSIGLSHHSAWLTVLEALEERPAVMTSPLYLE
modifications: N-glycans enzymatically removed with PNGase F
Work on B1 yielded a Kd (T-Fc [1]) of 0.669 nM, a koff (T-Fc [1]) of 0.000448 s⁻¹ and a koff (KCK-FGF1.E [2]) of 0.00222 s⁻¹.

B2: Fully glycosylated extracellular domain of FGFR1 fused to the Fc fragment of human IgG1: FGFR1 IIIc (FGFR1-Fc) (Fc fusion)
chain: RPSPTLPEQAQPWGAPVEVESFLVHPGDLLQLRCRLRDDVQSINWLRDGVQLAESNRTRITGEEVEVQDSVPADSGLYACVTSSPSGSDTTYFSVNVSDALPSSEDDDDDDDSSSEEKETDNTKPNRMPVAPYWTSPEKMEKKLHAVPAAKTVKFKCPSSGTPNPTLRWLKNGKEFKPDHRIGGYKVRYATWSIIMDSVVPSDKGNYTCIVENEYGSINHTYQLDVVERSPHRPILQAGLPANKTVALGSNVEFMCKVYSDPQPHIQWLKHIEVNGSKIGPDNLPYVQILKTAGVNTTDKEMEVLHLRNVSFEDAGEYTCLAGNSIGLSHHSAWLTVLEALEERPAVMTSPLYLE
modifications: N-glycosylated (fully glycosylated)
For B2, the Kd (T-Fc [3]) was 0.246 nM, the Kd (KCK-FGF1.E [4]) was 3.19 nM and the koff (KCK-FGF1.E [4]) was 0.000304 s⁻¹.
